{"source": "paper PMC8910563", "about": "“BdGUCD1 and Cyclic GMP Are Required for Responses of Brachypodium distachyon to Fusarium pseudograminearum in the Mechanism Involving Jasmonate” (International Journal of Molecular Sciences, 2022)", "proteins": {"B1": {"name": "BdGUCD1 (Brachypodium distachyon) (protein)", "chain": "MVLRTLGVDCCDGIADLGKLCHTTSIWTVDLAYLLHKFRVSFSFFTVTIGANPQYSAETFYREQLQEDIDRVDELFGKAVDAGISIQCRSISAYDIAFLLLSGHCIAIALVDKSKLISSWMNDVHDVQQFNEDSDYMGHYVVICGYDADACEFEIRDPASSRKREMVPMKSLEEARKSFGTDEDILLVSLTGKNGMKLSRKLPDSSL", "notes": "truncated fragment Met62-Leu268 (207 residues; full length 268 aa), N-terminal GST fusion kept (pGEX-6P-2), ~55 kDa, from E. coli BL21(DE3)pLysS"}}, "substrate": "Nc1ncnc2c1ncn2[C@@H]1O[C@H](COP(=O)(O)OP(=O)(O)OP(=O)(O)O)[C@@H](O)[C@H]1O", "assay": "adenylyl cyclase assay, cAMP by LC-MS/MS", "format": "biochemical, Brachypodium distachyon"}
{"protein": "B1", "values": [{"measurement": "Km", "result": 320, "unit": "µM"}]}
